{
  "source": "patent US20250129140A1",
  "about": "“ANTI-HCMV ANTIBODIES AND ANTIGEN-BINDING FRAGMENTS THEREOF” (ICAHN SCHOOL OF MEDICINE AT MOUNT SINAI, priority 2021, published 2025)",
  "key": {"[1]": {"tested_on": "recombinant HCMV pentamer (strain VR1814) consisting of gH, gL, UL128, UL130 and UL131A", "assay": "Biolayer interferometry (Octet RED) KD determination", "format": "binding, Human cytomegalovirus", "experimental": "Biolayer interferometry assays were performed using the Octet RED instrument (ForteBio, Inc.) to determine the association (kon) and dissociation (kdis) constants for each antibody. Purified monoclonal antibody was loaded onto the anti-mouse Fc IgG capture (AMC) biosensors using 5-fold dilutions (50-0.016 μg/mL in PBS) for 10 minutes. To determine the kon, the sensors were exposed to the recombinant HCMV pentamer (strain VR1814) consisting of gH, gL, UL128, UL130 and UL131A (Native Antigen, CMV-PENT-100) at a constant concentration of 100 μg/mL in PBS for 3 minutes. To determine the kdis, dissociation was measured over the course of 3 minutes while the sensors were in PBS buffer. KD values were calculated as a ratio of […].\nTo examine this further, 293 Expi cells were transfected with wildtype gH, wildtype gL, cotransfected with gH and gL (gH+gL), transfected with a single plasmid expressing both gH and gL (gH/gL) or co-transfected a variety of gH mutants and gL. Three days post transfection the cells were harvested and stained with unlabeled primary at 0.5 μg/mL using the antibodies indicated. Transfection efficiency was determined by measuring GFP expression on day 3 and binding was determined by percent Alexa Fluor 647 positive cells using a conjugated secondary. […] The binding profile for 1G9 is most similar to 10F8. Although the ratios of gH, gL and gO plasmid were 1:1:1 it is not certain how efficiently the trimer was assembled following transfection. […] To discern minute differences in antibody binding biolayer interferometry was used, immobilizing each of the purified monoclonal antibodies (50-0.016 μg/mL) onto anti-mouse IgG Fc capture (AMC) biosensors and exposing the sensors to recombinant pentamer (100 μg/mL)."}, "[2]": {"tested_on": "TB40/E UL32-eGFP virus", "assay": "Virus attachment assay on ARPE-19 cells", "format": "cell-based, Human cytomegalovirus", "details": "10 μg/mL, 0 or 120 minutes", "experimental": "ARPE-19 cells were plated in glass bottom 12 well plates the day before infection. […] Infection occurred at 37° C. for 0-2 hrs before cells were washed using a citrate wash buffer (pH 3.2) for two minutes at RT. Cells were then washed with PBS and fixed in 4% PFA for 20 minutes at RT before being stained with Hoechst. Plates were read using a Cytation 3 Cell Imaging Multi-Mode Reader (BioTek, Winooski, VT) and images were acquired using brightfield and the 405 and 488 nm lasers.\nTo visualize HCMV virion attachment and entry, a recombinant HCMV strain was used that expresses eGFP fused to the C terminus of the tegument protein pUL32. The tegument protein is tightly associated with the capsid and allows for visualization of virus entry by immunofluorescence. […] Cells were incubated with the virus/antibody for either 0 or 120 minutes before being washed with citrate buffer (pH 3.2) for two minutes and fixed with PFA."}, "[3]": {"tested_on": "HCMV", "assay": "Virus neutralization, summary statements across cell types and strains", "format": "cell-based, Human cytomegalovirus", "details": "MRC5; TB40/E, AD169R, TR, Towne", "method": "AD169R^BADrUL131, TB40E, TR, or Towne was pre-incubated with monoclonal antibodies (starting dilution of 100 μg/mL antibody) was diluted using 5 fold dilutions to achieve a final range of 50-0.016 μg/mL antibody after addition to 25 μL of media containing virus; final MOI 0.2) and incubated at 4° C. for 1 hr before the inoculum was added to the appropriate cell types (ARPE-19, HTR-svNeo, MRC5, or NHDF cells at 10,000 cells per well) for 2 hrs at 37° C., 5% CO2. Following infection, the inoculum was removed and replaced with 100 μL complete DMEM/F-12 media before an overnight incubation at 37° C., 5% CO2.\nCells were fixed using 4% paraformaldehyde (PFA) for 20 minutes at room temp. Cells were then permeabilized using 0.3% Triton X-100 (Thermo Fisher, #HFH10) in PBS and stained with an affinity-purified, polyclonal rabbit anti-IE1-1/2 (0.7 ng/ml) primary and an anti-rabbit Alexa Fluor 647 (1:1000) secondary. To quantify total cells per well, Hoechst (Molecular Probes, #H3570) was diluted 1:100,000 in PBS and incubated with cells for 20 minutes at room temp. Virus neutralization was quantified using a Celigo cytometer (Nexelcom Bioscience). Percent infection was calculated using ((#IE1-1+)/(#Hoechst+))*100 events per well and normalized to the percent infection when an irrelevant, non-neutralizing, or no antibody was used.\nThe student's unpaired, two tailed t tests were performed using the GraphPad Prism software (La Jolla, CA). An asterisk identifies statistical significance of P<0.05 or less."}, "[4]": {"tested_on": "HCMV AD169R", "assay": "FFU assay in ARPE-19 cells in combination with ganciclovir", "format": "cell-based, Human cytomegalovirus", "details": "combined with ganciclovir (2.5 μM); antibody 10 μg/mL; Day 12", "experimental": "Relative number of plaques present 12 dpi in ARPE-19 cells infected with AD169R. Infection was performed in the presence of antibody at three different concentrations +/−ganciclovir (2.5 μM). On day 12 post infection GFP images were taken and the plaque number was calculated relative to virus alone controls on each plate. M2E10 and CytoGam® were used as negative and positive controls respectively. Each condition was done in triplicate and 10,000 μm^2 was used as a cutoff for plaque area.\nARPE-19 or NHDF cells were plates at 50,000 cells per well in a 24 well and infected the following day. TB40/E (MOI 0.01) and AD169RBAD^rUL131 (MOI 0.1 & 0.01) was incubated with either 10 μg/mL or 0.5 μg/mL of antibody one hour prior to addition to cells. Following a 2 hr incubation at 37° C., 5% CO2 the inoculum was removed, and cells were overlaid with 1% low melt temperature sea agarose overlay. The overlay was allowed to solidify at room temp and then 500 μL of media was added before cells were put back into the incubator. […]\nTo test efficacy of the gH antibodies in combination with ganciclovir, the FFU assay was performed in ARPE-19 cells. […] M2E10 and CytoGam® were used as negative and positive controls respectively and the relative number of plaques was calculated based on cells which received virus alone without any antibody (black bar for each graph). […]"}, "[5]": {"tested_on": "HCMV AD169R", "assay": "Neutralization by fully human versus chimeric antibody versions", "format": "cell-based, Human cytomegalovirus", "details": "fully human (hu) version, human IgG1 Fc", "experimental": "Increasing concentrations of monoclonal antibodies (0.016-50 μg/mL) were incubated with AD169R (MOI 0.2) to assess neutralizing capacity. Percent infection was quantified using GFP expression at 18 hpi and normalized based on infection with virus alone (no antibody). CMV hyperimmune globulin (CytoGam®) was used as a control (trace on the upper right in FIGS. 8A, 8B, 8C, and 8D). FIG. 8A. […] FIG. 8B. Fully human (hu, comprising human variable and human constant regions) and chimeric (ms, comprising human variable and murine constant regions) versions of 9A12. FIG. 8C. Fully human (hu, comprising human variable and human constant regions) and chimeric (ms, comprising human variable and murine constant regions) versions of 13G1. FIG. 8D. Fully human (hu, comprising human variable and human constant regions) and chimeric (ms, comprising human variable and murine constant regions) versions of 14E1.\nFor this, the mouse Fc region of these mAbs was replaced with the human IgG1 Fc region."}},
  "data": [
    {"molecule": "15G11: anti-HCMV gH/gL monoclonal antibody, fusion 1; VH SEQ ID NO:52, VL SEQ ID NO:53; chimeric and fully human IgG1 versions (antibody, V domains shown, IgG1 constant regions, anti-HCMV gH/gL monoclonal antibody, fusion 1; chimeric and fully human IgG1 versions) VH: QVQLQESGPGLVKPSQTLSLTCTVSGGSISSGYYYWNWIRQHPGKGLECIGYIYYSGTTYYNPSLKSRLFISVDTSKNQFSLKLRSVTAADTAVYYCARGGLGAFDIWGQGTMVTVSS VL: EIVLTQSPGTLSLSPGERATLSCRASQSVSSSYLAWYQQKPGQAPRLLIYGASSRAPGIPDRFSGTGSGTDFTLTISRLEPEDFAVYYCQQYGISPLTFGGGTKVEIK", "values": [
      {"measurement": "kdis", "setting": "[1]; dissociation 3 minutes in PBS", "value": "8.69e-05", "unit": "s⁻¹"},
      {"measurement": "rank of binding constant within the panel", "setting": "[1]; recombinant pentamer", "value": "strongest"},
      {"measurement": "number of virions bound to the cells", "setting": "[2]", "value": "did not significantly change"},
      {"measurement": "neutralization of infection across all strains", "setting": "[3]", "value": "consistently neutralized infection"},
      {"measurement": "reduction in plaques", "setting": "[4]", "value": 95, "unit": "%"},
      {"measurement": "IC50 of infection, version with human constant regions", "setting": "[5]", "value": 0.37, "unit": "µg/mL"}
    ]}
  ]
}
